Target: T1, recombinant human CEACAM5 (Homo sapiens, UniProt P06731)
T1 sequence (P06731 35-676): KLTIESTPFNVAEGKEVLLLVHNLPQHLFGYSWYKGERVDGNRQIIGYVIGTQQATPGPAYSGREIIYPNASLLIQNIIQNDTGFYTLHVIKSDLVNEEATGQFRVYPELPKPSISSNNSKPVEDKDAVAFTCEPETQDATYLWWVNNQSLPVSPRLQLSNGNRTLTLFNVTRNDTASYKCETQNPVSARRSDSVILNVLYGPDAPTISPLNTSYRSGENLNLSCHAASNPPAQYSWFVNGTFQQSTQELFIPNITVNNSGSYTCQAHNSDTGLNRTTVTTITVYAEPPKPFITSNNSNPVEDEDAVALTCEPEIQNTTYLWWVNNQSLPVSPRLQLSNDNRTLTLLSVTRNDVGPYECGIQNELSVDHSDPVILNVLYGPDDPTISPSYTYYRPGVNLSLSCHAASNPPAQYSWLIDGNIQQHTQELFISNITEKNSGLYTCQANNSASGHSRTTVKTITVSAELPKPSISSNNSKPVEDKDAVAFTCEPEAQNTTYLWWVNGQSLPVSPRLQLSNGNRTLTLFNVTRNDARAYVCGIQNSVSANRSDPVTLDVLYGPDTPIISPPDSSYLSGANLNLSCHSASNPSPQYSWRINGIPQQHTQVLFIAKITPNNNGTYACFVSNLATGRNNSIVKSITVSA
Test: ELISA binding to recombinant human CEACAM5
Conditions: read-out: affinity (ELISA)
From the text: “Affinity” is defined, in theory, by the equilibrium association between the whole antibody and the antigen. It can be experimentally assessed by a variety of known methods, such as measuring association and dissociation rates with surface plasmon resonance or measuring the EC50 (or apparent KD) in an immunochemical assay (ELISA, FACS). In these assays, the EC50 is the concentration of the antibody which induces a response halfway between the baseline and maximum after some specified exposure time on a defined concentration of antigen by ELISA (enzyme-linked immuno-sorbent assay) or cell expressing the antigen by FACS (Fluorescence Activated Cell Sorting).
Affinity for human CEACAM5 or for Macaca fascicularis CEACAM5 may be determined as the EC50 value in an ELISA using soluble recombinant CEACAM5 as capture antigen.

EC50: ~0.02 nM
B1: naked antibody: humanized anti-CEACAM5 antibody (tusamitamab), CAS Registry No. 2349294-95-5; VH SEQ ID NO: 6, VL SEQ ID NO: 7 (antibody, V domains shown)
VH: EVQLQESGPGLVKPGGSLSLSCAASGFVFSSYDMSWVRQTPERGLEWVAYISSGGGITYAPSTVKGRFTVSRDNAKNTLYLQMNSLTSEDTAVYYCAAHYFGSSGPFAYVVGQGTLVTVSS
VL: DIQMTQSPASLSASVGDRVTITCRASENIFSYLAWYQQKPGKSPKLLVYNTRTLAEGVPSRFSGSGSGTDFSLTISSLQPEDFATYYCQHHYGTPFTFGSGTKLEI

— US20250154250A1, “CEACAM5 ADC-ANTI-PD1/PD-L1 COMBINATION THERAPY” (SANOFI, priority 2021, published 2025)
